Measured values as given in patent US6653282B1, “Peptide Compositions which induce immune tolerance and methods of use” (priority 1996, dated 2003).
Bridge positions count the residues as written; N and C are the ends. Square brackets hold non-standard residues; d marks the D form. Ends that are not written are not given here. Pen = CC(C)(S)[C@H](N)C(=O)O

What was measured:
[1] = target: intercellular adhesion molecule (ICAM-1) (human, UniProt P05362 28-532); assay: cell-based or functional assay
[2] = target: leukocyte function-associated antigen (LFA-1) (human, UniProt P20701 26-1170; P05107 23-769); assay: cell-based or functional assay
Sequence of leukocyte function-associated antigen (LFA-1) (P20701 26-1170, chain 1 of 2): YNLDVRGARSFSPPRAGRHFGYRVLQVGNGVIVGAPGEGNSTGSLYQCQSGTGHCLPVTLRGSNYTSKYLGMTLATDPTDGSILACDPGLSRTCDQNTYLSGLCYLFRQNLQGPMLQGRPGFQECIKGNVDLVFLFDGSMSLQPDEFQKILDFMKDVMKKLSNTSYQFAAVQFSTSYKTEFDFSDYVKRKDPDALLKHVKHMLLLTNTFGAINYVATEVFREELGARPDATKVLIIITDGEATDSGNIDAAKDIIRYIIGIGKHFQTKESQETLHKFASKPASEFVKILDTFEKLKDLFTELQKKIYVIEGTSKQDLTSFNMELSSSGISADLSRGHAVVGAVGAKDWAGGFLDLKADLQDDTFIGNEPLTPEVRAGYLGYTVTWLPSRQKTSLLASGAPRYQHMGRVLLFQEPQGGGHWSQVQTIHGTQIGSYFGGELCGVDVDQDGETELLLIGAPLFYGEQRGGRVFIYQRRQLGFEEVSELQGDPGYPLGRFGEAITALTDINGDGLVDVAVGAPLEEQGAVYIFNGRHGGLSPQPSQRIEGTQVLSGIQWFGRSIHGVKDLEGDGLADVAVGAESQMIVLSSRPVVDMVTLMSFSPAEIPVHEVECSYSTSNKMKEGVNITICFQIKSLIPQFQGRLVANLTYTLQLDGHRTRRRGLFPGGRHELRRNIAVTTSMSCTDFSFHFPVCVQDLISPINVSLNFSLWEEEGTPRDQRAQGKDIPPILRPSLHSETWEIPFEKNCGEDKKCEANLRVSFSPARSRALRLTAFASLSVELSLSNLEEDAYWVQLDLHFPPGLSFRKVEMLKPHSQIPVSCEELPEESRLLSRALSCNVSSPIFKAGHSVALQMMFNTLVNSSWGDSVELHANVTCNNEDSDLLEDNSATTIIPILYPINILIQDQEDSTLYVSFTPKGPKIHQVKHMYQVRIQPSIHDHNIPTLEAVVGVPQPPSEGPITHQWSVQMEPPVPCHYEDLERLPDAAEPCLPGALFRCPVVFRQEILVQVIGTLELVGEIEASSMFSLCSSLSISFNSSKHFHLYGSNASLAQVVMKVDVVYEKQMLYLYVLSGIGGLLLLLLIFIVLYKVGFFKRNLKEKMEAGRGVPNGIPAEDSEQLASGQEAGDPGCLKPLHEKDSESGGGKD
Sequence of leukocyte function-associated antigen (LFA-1) (P05107 23-769, chain 2 of 2): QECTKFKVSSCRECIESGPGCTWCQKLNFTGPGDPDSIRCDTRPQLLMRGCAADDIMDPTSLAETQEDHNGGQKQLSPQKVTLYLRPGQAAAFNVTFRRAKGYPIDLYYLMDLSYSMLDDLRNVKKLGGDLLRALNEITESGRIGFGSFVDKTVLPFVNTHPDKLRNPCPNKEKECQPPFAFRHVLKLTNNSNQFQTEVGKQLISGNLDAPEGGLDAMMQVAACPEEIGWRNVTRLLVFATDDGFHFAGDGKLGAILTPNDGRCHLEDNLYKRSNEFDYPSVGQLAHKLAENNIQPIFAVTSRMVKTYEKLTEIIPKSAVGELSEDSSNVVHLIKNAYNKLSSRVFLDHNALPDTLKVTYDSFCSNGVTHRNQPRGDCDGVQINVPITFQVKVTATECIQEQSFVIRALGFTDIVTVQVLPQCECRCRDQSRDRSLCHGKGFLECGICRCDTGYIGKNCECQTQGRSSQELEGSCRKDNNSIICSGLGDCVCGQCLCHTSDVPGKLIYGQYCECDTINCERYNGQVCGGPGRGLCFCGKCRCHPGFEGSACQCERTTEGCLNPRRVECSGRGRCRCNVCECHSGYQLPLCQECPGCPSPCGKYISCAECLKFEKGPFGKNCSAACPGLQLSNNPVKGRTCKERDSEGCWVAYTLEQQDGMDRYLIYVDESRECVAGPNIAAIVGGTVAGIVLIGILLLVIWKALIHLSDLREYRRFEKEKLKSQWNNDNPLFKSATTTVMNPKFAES

Sequence of intercellular adhesion molecule (ICAM-1) (P05362 28-532): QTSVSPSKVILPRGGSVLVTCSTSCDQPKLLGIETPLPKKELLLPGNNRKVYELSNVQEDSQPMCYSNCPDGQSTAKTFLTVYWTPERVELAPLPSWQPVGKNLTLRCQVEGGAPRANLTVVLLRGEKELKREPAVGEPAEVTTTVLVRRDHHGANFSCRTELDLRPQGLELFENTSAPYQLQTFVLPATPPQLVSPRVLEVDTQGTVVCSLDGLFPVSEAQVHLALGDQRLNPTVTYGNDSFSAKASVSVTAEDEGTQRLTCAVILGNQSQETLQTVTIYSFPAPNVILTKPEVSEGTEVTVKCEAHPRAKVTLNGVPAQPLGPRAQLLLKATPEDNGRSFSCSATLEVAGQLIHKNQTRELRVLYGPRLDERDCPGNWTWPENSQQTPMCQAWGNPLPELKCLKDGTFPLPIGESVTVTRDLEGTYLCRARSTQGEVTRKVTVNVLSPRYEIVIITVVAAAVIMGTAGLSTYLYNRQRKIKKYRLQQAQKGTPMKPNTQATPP

Binder: DLSYSLDDLRNVKKLGGDLLRALNE [LBE]
- Clumping Index [1]: 73 clumping index (0-100)

Binder: [Pen]QTSVSPSKVIC (disulfide 1-12; not fully specified) [cIB-L]
- Clumping Index [2]: 61 clumping index (0-100)

Binder: QTSVSPSKVILPRGGSVLVTG [IB]
- Clumping Index [2]: 56 clumping index (0-100)

Binder: DQPKLLGIETPLPKKELLLPGNNRK [IE]
- Clumping Index [2]: 63 clumping index (0-100)

Binder: [Pen]DLRNVKKLGGC (disulfide 1-12; not fully specified) [cLBE-C]
- Clumping Index [1]: 82 clumping index (0-100)

Binder: [Pen]ETPLPKKELLC (disulfide 1-12; not fully specified) [cIE-C]
- Clumping Index [2]: 23 clumping index (0-100)

Binder: ITDGEATDSGNIDAAKDIIYIIGI [LAB]
- Clumping Index [1]: 75 clumping index (0-100)

Binder: [Pen]DSGNIDAAKDC (disulfide 1-12; not fully specified) [cLAB-C]
- Clumping Index [1]: 80 clumping index (0-100)

Binder: [Pen]AKDIIYIIGIC (disulfide 1-12; not fully specified) [cLAB-R]
- Clumping Index [1]: 77 clumping index (0-100)

Binder: ENLARLLDGGLKKVNRLDDLSYSLD [EBL]
- Clumping Index [1]: 100 clumping index (0-100)

Binder: [Pen]DLSYSLDDLRC (disulfide 1-12; not fully specified) [cLBE-L]
- Clumping Index [1]: 75 clumping index (0-100)

Binder: [Pen]PSKVILPRGGC (disulfide 1-12; not fully specified) [cIB-C]
- Clumping Index [2]: 61 clumping index (0-100)

Binder: GVDVDQDGETELIGAPLFYGEQRG [LAB.2]
- Clumping Index [1]: 48 clumping index (0-100)

Binder: CLPRGGSVLVTC (disulfide 1-12; not fully specified) [cIB-R]
- Clumping Index [2]: 73 clumping index (0-100)

B1: cLAB-L (peptide)
peptide: XITDGEATDSGC
modifications: not fully specified; cyclic: disulfide bridge between the amino-terminal penicillamine (Xaa in the Sequence Listing) or cysteine and the carboxy-terminal cysteine
- Clumping Index [1]: 78 clumping index (0-100)

Binder: [Pen]GGLLRALNEC (disulfide 1-11; not fully specified) [cLBE-R]
- Clumping Index [1]: 100 clumping index (0-100)

Binder: [Pen]GVDVDQDGETC (disulfide 1-12; not fully specified) [cLAB.2-L]
- Clumping Index [1]: 50 clumping index (0-100)
